Nine molecules from patent US20190284262A1 (Memorial Sloan Kettering, published 2019) can be followed below.

Where two headings read alike, the source gives them in different places.

In assay [1] the target is T1, HLA-A*02:01 on T2 cells alone (no peptide added) (human).
T1 construct: TAP-deficient T2 cells without pulsed peptide; negative control target, and the HLA molecule whose stabilisation by peptides is read in the T2 stabilization assay; also called HLA-A*02 molecule; HLA-A2 molecule
The assay is described as follows: flow cytometry, phage on T2 without peptide. Background: Flow cytometry measures light scatter and fluorescence of single cells or particles in a stream.

Assay [2] addresses T1, HLA-A*02:01 on T2 cells alone (no …). In words: flow cytometry, phage on T2 without peptide; secondary only 100, unstained 99.5.
Assay [3] addresses T2, Foxp3-7 peptide/HLA-A*02:01 complex on the cell surface (human).
T2 construct: also called Foxp3-7/HLA-A2 complex
In words: flow cytometry, phage on T2 + Foxp3-7 peptide; secondary only 133, unstained 103.

A further assay concerns the target T3, T2+EW (Homo sapiens, UniProt A*02:01).
T3 construct: on the surface of T2 cells; irrelevant control peptide; also called EW peptide/HLA-A*02:01 complex on T2 cells; T2 pulsed with EW peptide
The assay is described as follows: flow cytometry, phage on T2 + EW peptide; secondary only 113, unstained 94.7.

Assay [4] concerns the target T2, Foxp3-7 peptide/HLA-A*02:01 complex on …. The assay is described as follows: flow cytometry, phage on T2 + Foxp3-7 peptide; secondary only 104, unstained 81.7.
Assay [5] deals with T4, R3 (RHAMM-R3) peptide/HLA-A*02:01 complex on T2 cells (human).
T4 construct: Control target of the phage staining of T2 cells; also called T2 cells pulsed with R3 peptide; RHAMM 3 (R3)
The assay is described as follows: flow cytometry, phage on T2 + R3 peptide (as the table names the samples); secondary only 109, unstained 80.9.

The target of assay [6] is T5, EXT017 (Foxp3-7) peptide/HLA-A*02:01 complex, recombinant (human).
T5 construct: The BLI and SPR paragraphs only say 'EXT017 peptide/HLA-A*02:01 complex'; also called EXT017 peptide/HLA-A*02:01 complex; biotinylated single chain Foxp3p/HLA-A0201 complex
The assay is described as follows: SPR.

Assay [7] concerns the target T5, EXT017 (Foxp3-7) peptide/HLA-A*02:01 …. In words: SPR; printed under the head 'ka [1/Ms]': the heads of c3 and c4 are evidently interchanged.
Assay [8] has the same target. The assay is described as follows: SPR; printed under the head 'kd [1/s]': the heads of c3 and c4 are evidently interchanged (0.005167/1.12E+07 = 0.46 nM). (In SPR one partner is held on a chip, and binding of the other changes the refractive index at the surface.)
In assay [9] the target is T1, HLA-A*02:01 on T2 cells alone (no …). The assay is described as follows: flow cytometry, phage on T2 without peptide. This is another data set of the same source.
The target is the same in assay [10]. In words: flow cytometry, phage on T2 without peptide; secondary only 125, unstained 99.8.
The target of assay [11] is T4, R3 (RHAMM-R3) peptide/HLA-A*02:01 …. The assay is described as follows: flow cytometry, phage on T2 + R3 peptide; secondary only 118, unstained 91.1.
For assay [12], the target named is T1, HLA-A*02:01 on T2 cells alone (no …). The assay is described as follows: flow cytometry, phage on T2 cells, no peptide.
The target of assay [13] is T2, Foxp3-7 peptide/HLA-A*02:01 complex on …. The assay is described as follows: flow cytometry, phage on peptide-loaded T2 cells.
In assay [14] the target is T6, 017-mut9 peptide (…)/HLA-A*02:01 complex on T2 cells (human).
T6 construct: Alanine mutant at position 9
The assay is described as follows: flow cytometry, phage on peptide-loaded T2 cells.

Assay [15] deals with T7, 017-mut1 peptide (…)/HLA-A*02:01 complex on T2 cells (human).
T7 construct: Alanine mutant of Foxp3-7 at position 1, pulsed onto T2 cells; also called EXT017-mut1
In words: flow cytometry, phage on peptide-loaded T2 cells.

Assay [16] has as its target T8, 017-mut2 peptide (…)/HLA-A*02:01 complex on T2 cells (human).
T8 construct: Alanine mutant at position 2, the anchor position; the peptide may load poorly onto HLA-A2; also called EXT017-mut2
In words: flow cytometry, phage on peptide-loaded T2 cells.

The target of assay [17] is T9, 017-mut3 peptide (…)/HLA-A*02:01 complex on T2 cells (human).
T9 construct: Alanine mutant at position 3
In words: flow cytometry, phage on peptide-loaded T2 cells.

In assay [18] the target is T10, 017-mut4 peptide (…)/HLA-A*02:01 complex on T2 cells (human).
T10 construct: Alanine mutant at position 4
The assay is described as follows: flow cytometry, phage on peptide-loaded T2 cells.

Assay [19] concerns the target T11, 017-mut5 peptide (…)/HLA-A*02:01 complex on T2 cells (human).
T11 construct: Alanine mutant at position 5
The assay is described as follows: flow cytometry, phage on peptide-loaded T2 cells.

In assay [20] the target is T12, 017-mut7 peptide (…)/HLA-A*02:01 complex on T2 cells (human).
T12 construct: Alanine mutant at position 7
The assay is described as follows: flow cytometry, phage on peptide-loaded T2 cells.

Assay [21] deals with T13, 017-mut8 peptide (…)/HLA-A*02:01 complex on T2 cells (human).
T13 construct: Alanine mutant at position 8; also called TLI-A8
The assay is described as follows: flow cytometry, phage on peptide-loaded T2 cells.

B1: Clone #5 (scFv)
scFv (VL-linker-VH-His/HA tag): QSALTQPPSASGSPGQSVTISCTGTSSDVGGYNYVSWYQQHPGKAPKLMIYEVSKRPSGVPDRFSGSKSGNTASLTVSGLQAEDEADYYCSSYAGSNTHVVFGGGTKLTVLGSRGGGGSGGGGSGGGGSLEMAEVQLVQSGAEVKKPGASVKISCKASRYTFTNYYIHWVRQAPGQGLEWMGIINPSGGSTTYPQNFQGRLTMTRDTSTSTVYMELSSLRSEDTAMYYCARGWSGYDPGDFWGQGTLVTVSSTSGQAGQHHHHHHGAYPYDVPDYAS
notes: also called EXT017-5; EXT017-5 scFv phage clone
As for B1, the binding result in [1] is reported as “no binding”. Moreover, the “Median:FITC-A” value came to 142 in assay [2]; 2050 in [3]; 149 in the assay with T2+EW; 2460 in assay [4]; 129 in assay [5].

B2: EXT017-32 mouse IgG1 (antibody, V domains shown)
VH: EVQLVESGGGVVQPGRSLRLSCAASGFTFNNHAMHWVRQAPGKGLEWVAVISFDGDDKFYADSVKGRFTISRDNSRNTLFLQMNNLRPEDTAVYYCSRDPYHFASGSYSYFDYWGQGTLVTVSS
VL: QSVLTQPPSVSVAPGKTARITCGGNNIGSKSVHWYQQKPGQAPVLVIYYDSDRPSGIPERFSGSNSGNTATLTISRVEAGDEADYYCQVWDSSSDHYVFGTGTKVTVLG
notes: Mouse IgG1 format of clone #32 made by Eureka Therapeutics; conjugated to APC for flow cytometry of Tregs; also called EXT017-32 mIgG; EXT017-32 mIgG1
In general, Kd refers to the constant that tells how readily two partners part at equilibrium. The koff is the first-order rate constant of dissociation. One may read the kon as the second-order rate constant of association. On to B2, for which, in assay [6], the Kd is 0.462 nM. Moreover, in assay [7], the koff was 0.00517 s⁻¹. Also, the kon in assay [8] stood at 1.12e+07 M⁻¹ s⁻¹.

B3: Clone #23 (scFv)
scFv (VL-linker-VH-His/HA tag): SYELTQPPSVSVAPGQTAWITCGGNNIGSKSVHWYQQKPGQAPILVVYDDSDRPSGIPERVSGSNSGNTATLTISRVEAGDEADYYCQVWDSSSDRWVFGGGTKLTVLGSRGGGGSGGGGSGGGGSLEMAQMQLVQSGAEVKKPGASVKVSCKASGYTFTNYGISWVRQAPGQGLEWMGWISPYNGNTNYAQKLQGRVTMTTDTSTSTAYMELRNLRSDDTAVYYCARYWDSGYAYDEWGQGTLVTVSSTSGQAGQHHHHHHGAYPYDVPDYAS
notes: also called EXT017-23; EXT017-23 scFv phage clone
For the molecule B3, the binding result in assay [1] is recorded as “no binding”. For the same molecule, the “Median:FITC-A” value was determined as 141 in assay [2], 982 in [3] and 144 with T2+EW.

B4: (FoxP4)_#5 (scFv)
scFv (VL-linker-VH-His/HA tag): QSVLTQPPSVSVAPGKTAKITCGGDNIGSKTVHWYQQKPGQAPALLIYYDSDRPSGIPERFSGSNSGNTATLSISRVEAGDEAGYFCQVWDGSSDHVIFGGGTKLTVLGSRGGGGSGGGGSGGGGSLEMAQMQLVQSGGGVVQPGRSLRLSCAASGFTFSSYAMHWVRQAPGKGLEWVAVISYDGSNKYYADSVKGRFTISRDNSKNTLYLQMNSLRAEDTAVYYCARDRHDYVMDVWGKGTTVTVSSTSGQAGQHHHHHHGAYPYDVPDYAS
notes: also called EXT018-5; EXT018-05 scFv phage clone
Turning to B4, the binding result in assay [9] is recorded as “no binding”. Moreover, the “Median:FITC-A” value worked out at 155 in [10] and 143 in [11].

B5: Clone #10 (scFv)
scFv (VL-linker-VH-His/HA tag): QAVLTQPPSASGTPGQRVTISCSGGSSNIGVNPVNWYQQLPGTAPKLLIFANYQRPSGVPDRFSGSKSGTSASLAISGLQSDDEAHYYCSTWDDSLNAWLFGGGTKLTVLGSRGGGGSGGGGSGGGGSLEMAEVQLVQSGAEVKKPGDSLRISCQGSGYSFTSYYISWVRQMPGKGLEWMGNIDPSDSYTNYSPSFQGHVTMSVDKSISTAYLQWSSLKASDIAIYYCVRHGFSNSPRLWFDTWGQGTLVTVSSTSGQAGQHHHHHHGAYPYDVPDYAS
notes: also called EXT017-10; EXT017-10 scFv phage clone
Turning to B5, in [1], the binding result was “no binding”. Besides, the “Median:FITC-A” value came to 149 in [2], 1130 in assay [3] and 151 in the assay with T2+EW.

B6: (FoxP4)_#2 (scFv)
scFv (VL-linker-VH-His/HA tag): QSVVTQPPSVSGAPGQRVTISCTGSSSNIGAGFDVHWYQQLPGTAPKLLIYGNSNRPSGVPDRFSGSKSATSASLAITGLQAEDEADYYCQSYDSSLSGVVFGGGTKLTVLGSRGGGGSGGGGSGGGGSLEMAQVQLVQSGAEVKKPGSSVKVSCKTSGGTFSSYAISWVRQAPGQGLEWMGGIIPIFGTANYAQRFQGRVTITADESTNTVYMELSSLRSEDTAVYYCARESWYLDEWGQGTLVTVSSTSGQAGQHHHHHHGAYPYDVPDYAS
notes: also called EXT018-2; EXT018-02 scFv phage clone
Regarding B6, the binding result in assay [9] was “no binding”. Moreover, the “Median:FITC-A” value in assay [10] turned out to be 157; in assay [11] it was 147.

B7: (FoxP4)_#4 (scFv)
scFv (VL-linker-VH-His/HA tag): QSVLTQPPSVSGAPGQRVTISCTGSNSNIGADFDVHWYQQLPGTAPKLLIYGNNNRPSGVPDRFSGSKSDTSASLAITGLQAEDEADYYCQSYDISLNGYVFGTGTKVTVLGSRGGGGSGGGGSGGGGSLEMAQVQLQQWGAGLLKPSETLSLTCAVSGGSFSDYYWSWIRQPPGKGLEWIGEITHTGSTNYNPSLKSRVTISVDTSKNHFSLNLTSVTAADTAVYYCARSNGFYYDTWGQGTLVTVSSTSGQAGQHHHHHHGAYPYDVPDYAS
notes: also called EXT018-4; EXT018-04 scFv phage clone
Consider B7, for which the binding result in assay [9] is reported as “no binding”. The figures for the “Median:FITC-A” value in [10] and in [11] were 155 and 148, respectively.

B8: EXT017-20 scFv phage clone (scFv)
scFv: QSVVTQPPSVSAAPGQKVTISCSGSSSNIGAGYDVHWYQQLPGTAPKLLIYGNSNRPSGVPDRFSGSKSGTSASLAITGLQAEDEADYYCQSYDSSLSGSVFGGGTKLTVLGSRGGGGSGGGGSGGGGSLEMAEVQLVQSGAEVKKPGSSVKVSCKASGGTFSSYAISWVRQAPGQGLEWMGGIIPIFGTANYAQKFQGRVTITADESTSTAYMELSSLRSEDTAVYYCARYSYKYGELDTWGQGTLVTVSSTSGQAGQHHHHHHGAYPYDVPDYAS
notes: full-length scFv with His+HA tags; also called EXT017-20 phage
In the case of B8, the MFI stood at 91.3 in [12]; 17100 in [13]; 95.6 in assay [14]; 4070 in [15]; 96 in assay [16]; 96.4 in assay [17]. Moreover, the MFI was found to be 93.7 in assay [18], 95 in assay [19], 94.9 in [20] and 11100 in [21]. In addition, the binding result in assay [1] was “no binding”. The “Median:FITC-A” value was determined as 136 in assay [2]; 1220 in [3]; 139 with T2+EW; 2300 in assay [4]; 128 in assay [5].

B9: Clone #24 (scFv)
scFv (VL-linker-VH-His/HA tag): QAVLTQPPSVSAAPGQKVTISCSGSSSNIGNNYVSWYQQLPGTAPKLLIYDNNKRPSGLPDRFSGSKSGTSATLGITGLQTGDEADYYCGTWDSSLNAVVFGGGTQLTVLSSRGGGGSGGGGSGGGGSLEMAQVQLVQSGAEVKKPGASVKVSCKASGYTFTNYYIHWVRQAPGQGLEWMGIIRPSGGITNYAQKFQGRVTMTRDTSTSTVYMELSSLRSEDTAVYYCARSWSNKLSWYNDGWGQGTLVTVSSTSGQAGQHHHHHHGAYPYDVPDYAS
notes: also called EXT017-24; EXT017-24 scFv phage clone
Turning to B9, in assay [1], the binding result is recorded as “no binding”. Besides, the “Median:FITC-A” value in assay [2] was 146; in assay [3] it was 1040; with T2+EW, 141.
